Experimental data taken from patent US20190153055A1.

Target: receptor CCR1 (UniProt P32246)
Test: cell-based or functional assay

Chain of UniProt P32246 (P32246 whole entry): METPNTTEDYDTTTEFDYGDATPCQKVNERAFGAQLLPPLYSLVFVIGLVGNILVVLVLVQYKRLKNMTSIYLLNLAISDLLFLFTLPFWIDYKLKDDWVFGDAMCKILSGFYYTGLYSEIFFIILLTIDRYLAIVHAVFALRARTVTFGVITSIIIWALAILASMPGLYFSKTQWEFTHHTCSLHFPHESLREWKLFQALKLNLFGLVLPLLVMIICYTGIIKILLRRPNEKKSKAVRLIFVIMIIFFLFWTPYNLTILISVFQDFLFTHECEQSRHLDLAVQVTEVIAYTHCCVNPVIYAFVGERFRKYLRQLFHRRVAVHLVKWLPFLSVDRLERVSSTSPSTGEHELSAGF

reactivity of the CCR1 receptor (Tango CCR1-bla U20S reporter cells, Blue/Green Emission ratio): 0.63 nM
Substance: CCL3 (D27A, Δ1, CCL3α) (from UniProt P10147 24-92) (ligand)
